The text below walks through data of patent US20210205365A1, “Chimeric Growth Factor Receptors” (Instil Bio (UK) Ltd., priority 2018, published 2021).

One series relates to circulating platelets. Particulars: 73 healthy volunteers, higher doses; cited from earlier work.
The next series relates to T-cells. Particulars: via administration of Tpo or Eltrombopag; cited from earlier work.
A short description of series [1]: Previous attempts to modify TpoR (surface expression, activity). It counts as cell-based. To be noted: previously validated. From the text: However attempts to modify the receptor were not always straightforward. […] Furthermore, Applicants felt that they could improve the signalling capacity of TpoR-based receptors in T-cells by including signalling components which activate JAK3, a signalling molecule involved in IL-2 signalling but not in TpoR signalling, and therefore more likely to drive IL-2 like signals in engineered cells.
Applicants therefore aimed to generate fusion receptors wherein additional domains were fused directly to the C-terminus of the TpoR IC domain. Applicants first generated a fusion between TpoR and the IL2rβ signalling domain. […] Applicants therefore took an alternative approach where a hybrid TpoR-IL2rβ signalling domain was created whereby the I2rβ signalling region was fused N- or C-terminal to TpoR signalling domain. Next Applicants generated receptors where the cytoplasmic domain of TIAF1, TLR1, CD150, IL2rγ, CD40, LMP1 and ITAM1 from CD3ζ were fused C-terminal to the TpoR signalling domain. […] Applicants also generated CrGFR consisting of TpoR extracellular and transmembrane domain fused to the cytoplasmic domain of CD28 and CD137 as Applicants felt these would provide a costimulatory growth signal upon Eltrombopag administration, sequences of these constructs are provided below.

In another series the test system is primary human T-cells. Put plainly: Eltrombopag and IL-2 on CrGFR sorted (CD110+) primary human T-cells, up to 7 days. It counts as cell-based. To be noted: second donor (FIG. 12). The method, then: FIG. 10—Analysis of Eltrombopag and IL-2 on CrGFR sorted primary human T-cells from Donor 4. Primary human T-cells from donor 4 were transduced with the WT TpoR or variant CrGFR, and enriched for expression by Miltenyi MACS technology selected for and incubated in the presence of IL2 or Eltrombopag. Cells were removed at time points up to 7 days and the number of cells expressing the receptor assessed using PE conjugated anti-CD110 antibodies, DRAQ7 viability dye and a MACSQuant analyser.
FIG. 11—Analysis of Eltrombopag and IL-2 on CrGFR sorted primary human T-cells from Donor 5. Primary human T-cells from donor 5 were transduced with the WT TpoR or variant CrGFR, and enriched for expression by Miltenyi MACS technology selected for and incubated in the presence of IL2 or Eltrombopag. Cells were removed at time points up to 7 days and the number of cells expressing the receptor assessed using PE conjugated anti-CD110 antibodies, DRAQ7 viability dye and a MACSQuant analyser.
FIG. 12—Analysis of Eltrombopag and IL-2 on CrGFR sorted primary human T-cells from Donor 6. Primary human T-cells from donor 6 were transduced with the WT TpoR or variant CrGFR, and enriched for expression by Miltenyi MACS technology selected for and incubated in the presence of IL2 or Eltrombopag. Cells were removed at time points up to 7 days and the number of cells expressing the receptor assessed using PE conjugated anti-CD110 antibodies, DRAQ7 viability dye and a MACSQuant analyser.
Paramagnetic bead sorts were conducted as per the manufacturers' instructions using either anti-PE microbeads (Miltenyi Biotec or StemCell Technologies), or T-cell isolation beads (17951: StemCell Technologies).
Next Applicants repeated the experiment but sorted the CrGFR+ cells using CD110+ selection by paramagnetic bead selection using the receptors identified from the first round of selections (FIGS. 10, 11 and 12). Applicants observed enhanced survival of T-cells engrafted with the majority of the CrGFR in all three donors. In particular Applicants saw expansion of WT-TpoR, TpOR.CD40, TpOR.IL2rγ and TpoR.LMP1-cyto cells in the second donor (FIG. 12) above that with media alone.

On to `CC1=NN(c2ccc(C)c(C)c2)C(=O)/C1=N\Nc1cccc(-c2cccc(C(=O)O)c2)c1O` [Eltrombopag], for which the tolerability result in the series with circulating platelets is “without tolerability problems”.

B1: WT TpoR: Wild type TpoR, SEQ ID NO: 1, 635 amino acids (protein, listed as Homo sapiens)
chain: MPSWALFMVTSCLLLAPQNLAQVSSQDVSLLASDSEPLKCFSRTFEDLTCFWDEEEAAPSGTYQLLYAYPREKPRACPLSSQSMPHFGTRYVCQFPDQEEVRLFFPLHLWVKNVFLNQTRTQRVLFVDSVGLPAPPSIIKAMGGSQPGELQISWEEPAPEISDFLRYELRYGPRDPKNSTGPTVIQLIATETCCPALQRPHSASALDQSPCAQPTMPWQDGPKQTSPSREASALTAEGGSCLISGLQPGNSYWLQLRSEPDGISLGGSWGSWSLPVTVDLPGDAVALGLQCFTLDLKNVTCQWQQQDHASSQGFFYHSRARCCPRDRYPIWENCEEEEKTNPGLQTPQFSRCHFKSRNDSIIHILVEVTTAPGTVHSYLGSPFWIHQAVRLPTPNLHWREISSGHLELEWQHPSSWAAQETCYQLRYTGEGHQDWKVLEPPLGARGGTLELRPRSRYRLQLRARLNGPTYQGPWSSWSDPTRVETATETAWISLVTALHLVLGLSAVLGLLLLRWQFPAHYRRLRHALWPSLPDLHRVLGQYLRDTAALSPPKATVSDTCEEVEPSLLEILPKSSERTPLPLCSSQAQMDYRRLQPSCLGTMPLSVCPPMAESGSCCTTHIANHSYLPLSYWQQP
modifications: MISC_FEATURE (1)..(491): TpoR Extracellular Domain; MISC_FEATURE (492)..(513): TpoR Transmembrane Domain; MISC_FEATURE (514)..(635): TpoR Cytoplasmic Domain
As for B1, the “survival and expansion of engineered T-cells” value in the series on T-cells was “could permit controlled survival and expansion of T-cells”. Further, the “activity in primary human T-cells” value in series [1] is given as “can have activity”. Besides, the “expansion of CrGFR cells above that with media alone” value with primary human T-cells was “expansion”.
